Assay results from patent US20180303952A1 (CYTOMX THERAPEUTICS, published 2018).

T1: human CD147 protein (adsorbed to ELISA plates) (human, UniProt P35613-2 22-205, limits assumed)
T1 construct: also called human CD147 polypeptide; Basigin
T1 sequence (looked up): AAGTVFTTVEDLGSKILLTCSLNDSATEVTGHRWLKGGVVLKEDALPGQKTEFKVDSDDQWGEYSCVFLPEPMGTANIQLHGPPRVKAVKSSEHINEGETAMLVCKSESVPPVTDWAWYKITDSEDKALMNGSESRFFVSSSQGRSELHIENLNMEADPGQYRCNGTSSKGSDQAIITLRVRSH


The binders below were run against T1, human CD147 protein (adsorbed to ELISA …) (assay: ELISA, human CD147 protein adsorbed to plate, intact activatable antibody; apparent KD).
Experimental: Humanized anti-human CD147 antibodies of the present disclosure hu 3A11 Hc1/Lc1 (VL of SEQ ID NO: 5 and VH of SEQ ID NO: 1) were used as a control.
(§1) Using a standard ELISA protocol, human CD147 protein was absorbed to ELISA plates and subsequently incubated with the indicated concentration of antibody of the present disclosure. Bound humanized activatable antibody of the present disclosure was detected with anti-human Fab-peroxidase secondary antibody and Ultra TMB detection (Thermo Fisher Scientific).

Row | Binder | Kd [nM]
1 | anti-human CD147 activatable antibody hu 3A11 Hc1/Lc1-414-3001 (antibody, also called hu 3A11-414-3001) VH: EVQLVESGGGLVQPGGSLRLSCAASGFTFSNYWMDWVRQAPGKGLEWVGEIRLKSYNYATHYAASVKGRFTISRDDSKNSVYLQMNSLKTEDTAVYYCTAAGTDYWGQGTLVTVSS VL: THGPCHFKPNCSYPTGGGSSGGSAVGLLAPPGGLSGRSDNHGGSDIQMTQSPSSLSASVGDRVTITCRASQSVRTDVGWYQQKPGKAPKLLIYYSSNRYTGVPSRFSGSGSGTDFTLTISSLQPEDFATYYCQQDYSSPYTFGQGTKLEIK | 16

Biological target: T1, human CD147 protein (adsorbed to ELISA …)
Test: as above
Remark: another data set of the same source
Experimental: as §1, with “For the exemplary assay depicted in FIGS. 7A-7C,” for “Using a”, “protocol was used, in which” for “protocol,”

Row | Binder | Kd [nM]
2 | anti-human CD147 activatable antibody hu 3A11 Hc1/Lc1-414-3001 (antibody, also called hu 3A11-414-3001) VH: EVQLVESGGGLVQPGGSLRLSCAASGFTFSNYWMDWVRQAPGKGLEWVGEIRLKSYNYATHYAASVKGRFTISRDDSKNSVYLQMNSLKTEDTAVYYCTAAGTDYWGQGTLVTVSS VL: THGPCHFKPNCSYPTGGGSSGGSAVGLLAPPGGLSGRSDNHGGSDIQMTQSPSSLSASVGDRVTITCRASQSVRTDVGWYQQKPGKAPKLLIYYSSNRYTGVPSRFSGSGSGTDFTLTISSLQPEDFATYYCQQDYSSPYTFGQGTKLEIK | 24.7
3 | anti-human CD147 activatable antibody hu 3A11 Hc1/Lc1-419.3-2012 (antibody, V domains shown, also called hu 3A11-419.3-2012) VH: EVQLVESGGGLVQPGGSLRLSCAASGFTFSNYWMDWVRQAPGKGLEWVGEIRLKSYNYATHYAASVKGRFTISRDDSKNSVYLQMNSLKTEDTAVYYCTAAGTDYWGQGTLVTVSS VL: LHGPCHYDLKCKGGGSSGGSISSGLLSGRSANPGGGSDIQMTQSPSSLSASVGDRVTITCRASQSVRTDVGWYQQKPGKAPKLLIYYSSNRYTGVPSRFSGSGSGTDFTLTISSLQPEDFATYYCQQDYSSPYTFGQGTKLEIK | 10
4 | anti-human CD147 activatable antibody hu 3A11 Hc1/Lc1-414.3-2012 (antibody, V domains shown, also called hu 3A11-414.3-2012) VH: EVQLVESGGGLVQPGGSLRLSCAASGFTFSNYWMDWVRQAPGKGLEWVGEIRLKSYNYATHYAASVKGRFTISRDDSKNSVYLQMNSLKTEDTAVYYCTAAGTDYWGQGTLVTVSS VL: THGPCHFKPNCAYPTGGGSSGGSISSGLLSGRSANPGGGSDIQMTQSPSSLSASVGDRVTITCRASQSVRTDVGWYQQKPGKAPKLLIYYSSNRYTGVPSRFSGSGSGTDFTLTISSLQPEDFATYYCQQDYSSPYTFGQGTKLEIK | 5.92
5 | anti-human CD147 activatable antibody hu 3A11 Hc1/Lc1-415.1-2012 (antibody, V domains shown, also called hu 3A11-415.1-2012) VH: EVQLVESGGGLVQPGGSLRLSCAASGFTFSNYWMDWVRQAPGKGLEWVGEIRLKSYNYATHYAASVKGRFTISRDDSKNSVYLQMNSLKTEDTAVYYCTAAGTDYWGQGTLVTVSS VL: LHGPCHFNNCNTLGGGSSGGSISSGLLSGRSANPGGGSDIQMTQSPSSLSASVGDRVTITCRASQSVRTDVGWYQQKPGKAPKLLIYYSSNRYTGVPSRFSGSGSGTDFTLTISSLQPEDFATYYCQQDYSSPYTFGQGTKLEIK | 4.68
6 | anti-human CD147 activatable antibody hu 3A11 Hc1/Lc1-419.3-3001 (antibody, V domains shown, also called hu 3A11-419.3-3001) VH: EVQLVESGGGLVQPGGSLRLSCAASGFTFSNYWMDWVRQAPGKGLEWVGEIRLKSYNYATHYAASVKGRFTISRDDSKNSVYLQMNSLKTEDTAVYYCTAAGTDYWGQGTLVTVSS VL: LHGPCHYDLKCKGGGSSGGSAVGLLAPPGGLSGRSDNHGGSDIQMTQSPSSLSASVGDRVTITCRASQSVRTDVGWYQQKPGKAPKLLIYYSSNRYTGVPSRFSGSGSGTDFTLTISSLQPEDFATYYCQQDYSSPYTFGQGTKLEIK | 73.5
7 | anti-human CD147 activatable antibody hu 3A11 Hc1/Lc1-419.2-3001 (antibody, V domains shown, also called hu 3A11-419.2-3001) VH: EVQLVESGGGLVQPGGSLRLSCAASGFTFSNYWMDWVRQAPGKGLEWVGEIRLKSYNYATHYAASVKGRFTISRDDSKNSVYLQMNSLKTEDTAVYYCTAAGTDYWGQGTLVTVSS VL: LHGPCHYDLKCKNNGGGSSGGSAVGLLAPPGGLSGRSDNHGGSDIQMTQSPSSLSASVGDRVTITCRASQSVRTDVGWYQQKPGKAPKLLIYYSSNRYTGVPSRFSGSGSGTDFTLTISSLQPEDFATYYCQQDYSSPYTFGQGTKLEIK | 20.8
8 | anti-human CD147 activatable antibody hu 3A11 Hc1/Lc1-414.4-2012 (antibody, V domains shown, also called hu 3A11-414.4-2012) VH: EVQLVESGGGLVQPGGSLRLSCAASGFTFSNYWMDWVRQAPGKGLEWVGEIRLKSYNYATHYAASVKGRFTISRDDSKNSVYLQMNSLKTEDTAVYYCTAAGTDYWGQGTLVTVSS VL: THGPCHFRPNCAYPTGGGSSGGSISSGLLSGRSANPGGGSDIQMTQSPSSLSASVGDRVTITCRASQSVRTDVGWYQQKPGKAPKLLIYYSSNRYTGVPSRFSGSGSGTDFTLTISSLQPEDFATYYCQQDYSSPYTFGQGTKLEIK | 6.73
9 | anti-human CD147 activatable antibody hu 3A11 Hc1/Lc1-415-2012 (antibody, V domains shown, also called hu 3A11-415-2012) VH: EVQLVESGGGLVQPGGSLRLSCAASGFTFSNYWMDWVRQAPGKGLEWVGEIRLKSYNYATHYAASVKGRFTISRDDSKNSVYLQMNSLKTEDTAVYYCTAAGTDYWGQGTLVTVSS VL: LHGPCHFNNCNTLKLGGGSSGGSISSGLLSGRSANPGGGSDIQMTQSPSSLSASVGDRVTITCRASQSVRTDVGWYQQKPGKAPKLLIYYSSNRYTGVPSRFSGSGSGTDFTLTISSLQPEDFATYYCQQDYSSPYTFGQGTKLEIK | 1.43

The binders below were run against T1, human CD147 protein (adsorbed to ELISA …) (assay: ELISA, human CD147 protein adsorbed to plate, anti-mouse Fc-peroxidase detection; apparent KD).
Experimental: The antibody of the present disclosure that was assayed in this exemplary study was hu 3A11 Lc1/Hc1 (VL of SEQ ID NO: 5 and VH of SEQ ID NO: 1). Mouse anti-human CD147 monoclonal antibody 3A11 (VL of SEQ ID NO: 8 and VH of SEQ ID NO: 4) was assayed as a reference. Using a standard ELISA protocol, human CD147 protein was absorbed to ELISA plates and subsequently incubated with the indicated concentration of antibody of the present disclosure. Bound humanized antibody of the present disclosure was detected with anti-human Fab-peroxidase secondary antibody and the mouse 3A11 monoclonal antibody was detected with anti-mouse Fc-peroxidase secondary antibody, and Ultra TMB detection (Thermo Fisher Scientific).

Row | Binder | Kd [nM]
10 | mouse anti-human CD147 monoclonal antibody 3A11 (antibody, V domains shown, Mouse hybridoma antibody, detected with anti-mouse Fc secondary antibody; also called Mouse 3A11; mu 3A11) VH: EVKLEESGGGLVQPGGSMKLSCVASGFTFSNYWMNWVRQSPEKGLEWVGEIRLKSYNYATHYVESVEGRFTISRDDSKSSVYLQMNNLRAEDTGIYYCTAAGTDYWGQGTTLTVSS VL: SIVMTQIPKILLVSAGDRVTITCKASQSVRTDVAWYQQKPGQSPKLLIYYSSNRYTGVPDRFTGSGYGTDFTFTISTVQAEDLAVYFCQQDYSSPFTFGSGTKLEIK | 0.293

Each binder was assayed against T1, human CD147 protein (adsorbed to ELISA …) (assay: ELISA, human CD147 protein adsorbed to plate, anti-human Fab-peroxidase detection; apparent KD).
Experimental: The antibodies of the present disclosure that were assayed in this exemplary study were hu 3A11 Lc1/hu 3A11 Hc1 (VL of SEQ ID NO: 5 and VH of SEQ ID NO: 1), hu 3A11 Lc2/hu 3A11 Hc2 (VL of SEQ ID NO: 6 and VH of SEQ ID NO: 2), hu 3A11 Lc4/hu 3A11 Hc2 (VL of SEQ ID NO: 8 and VH of SEQ ID NO: 2). Using a standard ELISA protocol, human CD147 protein was absorbed to ELISA plates and subsequently incubated with the indicated concentration of antibody of the present disclosure. Bound humanized antibody of the present disclosure was detected with anti-human Fab-peroxidase secondary antibody, and Ultra TMB detection (Thermo Fisher Scientific).

Row | Binder | Kd [nM]
11 | humanized anti-human CD147 antibody hu 3A11 Lc2/hu 3A11 Hc2 (antibody, V domains shown, also called hu 3A11 (hu Lc2/hu Hc2)) VH: EVQLVESGGGLVQPGGSLRLSCAASGFTFSNYWMNWVRQAPGKGLEWVGEIRLKSYNYATHYAASVKGRFTISRDDSKNSLYLQMNSLKTEDTAVYYCARAGTDYWGQGTLVTVSS VL: DIQMTQSPSSLSASVGDRVTITCKASQSVRTDVAWYQQKPGKAPKLLIYYSSNRYTGVPSRFSGSGSGTDFTLTISSLQPEDFATYYCQQDYSSPFTFGQGTKLEIK | 0.726
12 | humanized anti-human CD147 antibody hu 3A11 Lc4/hu 3A11 Hc2 (antibody, V domains shown, also called hu 3A11 (hu Lc4/hu Hc2)) VH: EVQLVESGGGLVQPGGSLRLSCAASGFTFSNYWMNWVRQAPGKGLEWVGEIRLKSYNYATHYAASVKGRFTISRDDSKNSLYLQMNSLKTEDTAVYYCARAGTDYWGQGTLVTVSS VL: DIQMTQSPSSLSVSVGDRVTITCKASQSVRTDVAWYQQKPGKAPKLLIYYSSNRYTGVPSRFSGSGYGTDFTFTISSVQPEDFATYYCQQDYSSPFTFGQGTKLEIK | 0.902
